Results on one molecule are retold here after patent US20020035240A1 (Amgen, published 2002).

In this assay the target is T1, rat p55CDC (rat, UniProt Q62623 1-499, phosphorylated in CHO cells (sites not given)).
T1 construct: 499 amino acids; In the assays it came from cell lysates: CHO cells transfected with the 1.8 kb rat cDNA (PMTp55s), or the endogenous protein of Rat1 cells
Nature of the assay: co-immunoprecipitation with p55CDC antibody from 35S-labelled CHO cell lysates, SDS-PAGE. The protocol: Autoradiography was performed for 1 week.
In vitro translation was performed using a nuclease treated rabbit reticulocyte lysate (Promega, Madison, WI) and [³H]-leucine (Amersham TRK683). The mRNA template was produced by using the Stratagene in vitro transcription kit and the p55CDC cDNA subcloned into the Bluescript vector as substrate. Cell lysates were prepared as described (59) after rinsing the plates twice with PBS. Cells were lysed in modified radioimmunoprecipitation assay (RIPA) buffer with additional […] (150 mM NaCl, 1.0% NP-40, 1.0% sodium deoxycholate, 0.1% SDS, 2 mM EDTA, 6 mM Na₂HPO₄, 4 mM NaH₂PO4 50 mM NaF, 200 μM Na₃VO₄, 20 μg/ml aprotinin, 1 μg/ml leupeptin, 10 μg/ml soybean trypsin inhibitor and 50 μg/ml phenylmethyl sulfonyl fluoride). All protease inhibitors were purchased from Sigma. Protein concentrations were estimated using the Bicinchoninic acid reagent (Pierce). For 250 μg lysate in a final volume of 700 μl RIPA buffer, we used 7 μl of affinity purified p55CDC antibodies (140 μg protein/ml) or 12 μl of p55CDC competed antiserum (700 μg protein/ml) which gave an equivalent level of immunoglobulin for both preparations. Immunoprecipitation of p34^cdc2 complexes was done using 10 μl of the p34^cdc2 mouse monoclonal antibody 17 (Santa Cruz Biotechnology, Santa Cruz, Calif.). […]

T1 sequence (Q62623 whole entry D77E): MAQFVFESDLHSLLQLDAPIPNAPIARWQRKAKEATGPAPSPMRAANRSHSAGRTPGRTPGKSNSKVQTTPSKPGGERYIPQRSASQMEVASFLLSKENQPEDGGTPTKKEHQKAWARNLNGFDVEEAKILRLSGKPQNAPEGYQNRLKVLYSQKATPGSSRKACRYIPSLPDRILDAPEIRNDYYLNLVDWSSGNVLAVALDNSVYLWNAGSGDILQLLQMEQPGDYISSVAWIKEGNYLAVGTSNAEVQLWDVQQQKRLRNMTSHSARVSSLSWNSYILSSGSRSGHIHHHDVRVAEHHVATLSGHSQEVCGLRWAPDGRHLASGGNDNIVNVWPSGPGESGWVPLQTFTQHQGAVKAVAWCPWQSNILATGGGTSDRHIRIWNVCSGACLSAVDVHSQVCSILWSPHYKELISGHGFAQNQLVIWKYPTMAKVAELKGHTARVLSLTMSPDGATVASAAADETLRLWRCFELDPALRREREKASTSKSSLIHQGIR

B1: p34cdc2 (CHO cells) (enzyme)
chain: not shown
As for B1, the binding result is on record as “no binding”.
